Assay results reported in US5599789A, “Method for the treatment of tumours and sarcomas” (Amrad Corporation Limited, priority 1991, dated 1997).

Legend:
Type in all cases: cell-based, human
[1] = tested on: Ewing's Sarcoma cell line Al-8; assay: Colony formation in semi-solid agar cultures, Al-8 cells; details: Al-8, 1,000 cells; stimulus 100 ng; mean of duplicate colony counts, day 18
Procedure: (§1) Tumour cells obtained from biopsy and bone marrow specimens from patients with Ewing's Sarcoma were used in these studies. Approval for this project has been obtained from the Ethics Committee of the Royal Children's Hospital.
(§2) Single cell suspensions of tumour cells were obtained by mechanical disruption with an 18G or 21G needle or by pipetting, followed by incubation with dispase II (Boehringer) at a concentration of 1.2 units per ml for 10 minutes at 37° C. Prior to the addition to agar-medium the cells were vortexed gently to prevent clumping.
(§3) Clonal cell lines were grown in Iscove's Modified Dulbecco's Medium (IMDM) supplemented with 10% v/v foetal calf serum (FCS; CSL Limited, Melbourne, Australia) and were passaged either weekly or twice weekly. The characteristics of the Ewing Sarcoma cell lines used herein as described below:
(§4) Cell lines derived from the above primary cell lines (Al and Cu) are identified by an Arabic numeral (e.g. Al-1, Al-5, Al-8 or Cu-1).
(§5) The tumour cells were immobilised in 0.3% w/v agar containing Iscove's Modified Dulbecco's Medium (IMDM) and 10% v/v FCS. […] Cultures were scored for the presence of colonies (>40 cells) or clusters (<40 cells). The number of cells plated per culture ranged from 500 to 10,000 per ml. Colonies were counted on an Olympus dissecting microscope. […]

[2] = tested on: Ewing's Sarcoma cell line Cu-1; assay: Colony formation in semi-solid agar cultures, Cu-1 cells; details: Cu-1, 10,000 cells; stimulus 100 ng; mean of duplicate colony counts, day 18
Procedure: as §1, §2, §3, §4, §5

[3] = tested on: Ewing's Sarcoma cell line Al (uncloned); assay: Colony formation in semi-solid agar cultures, Al (uncloned) cells; details: Al(uncloned), 5,000 cells; stimulus 100 ng; mean of duplicate colony counts, day 18
Procedure: as §1, §2, §3
The tumour cells were immobilised in 0.3% w/v agar containing Iscove's Modified Dulbecco's Medium (IMDM) and 10% v/v FCS. […] Cultures were scored for the presence of colonies (>40 cells) or clusters (<40 cells). The number of cells plated per culture ranged from 500 to 10,000 per ml. Colonies were counted on an Olympus dissecting microscope.
IL-1, IL-3, IL-4, IL-6, M-CSF, G-CSF, GM-CSF, Stem Cell Factor (SCF), TNFα, TGFα, TGFβ, EGF, aFGF, bFGF, NGF, IGF I, IGF II, PDGF and IFN-γ. […]

[4] = tested on: Ewing's Sarcoma cell line Al-1; assay: Colony formation in semi-solid agar cultures, Al-1 cells; details: stimulus 100 ng, mean of duplicate colony counts, day 18
Procedure: as §1, §2, §3, §4, §5

B1: EGF: commercially available growth factor (protein, UniProt P01133 23-1207, looked up)
Pro-epidermal growth factor: PQHWSCPEGTLAGNGNSTCVGPAPFLIFSHGNSIFRIDTEGTNYEQLVVDAGVSVIMDFHYNEKRIYWVDLERQLLQRVFLNGSRQERVCNIEKNVSGMAINWINEEVIWSNQQEGIITVTDMKGNNSHILLSALKYPANVAVDPVERFIFWSSEVAGSLYRADLDGVGVKALLETSEKITAVSLDVLDKRLFWIQYNREGSNSLICSCDYDGGSVHISKHPTQHNLFAMSLFGDRIFYSTWKMKTIWIANKHTGKDMVRINLHSSFVPLGELKVVHPLAQPKAEDDTWEPEQKLCKLRKGNCSSTVCGQDLQSHLCMCAEGYALSRDRKYCEDVNECAFWNHGCTLGCKNTPGSYYCTCPVGFVLLPDGKRCHQLVSCPRNVSECSHDCVLTSEGPLCFCPEGSVLERDGKTCSGCSSPDNGGCSQLCVPLSPVSWECDCFPGYDLQLDEKSCAASGPQPFLLFANSQDIRHMHFDGTDYGTLLSQQMGMVYALDHDPVENKIYFAHTALKWIERANMDGSQRERLIEEGVDVPEGLAVDWIGRRFYWTDRGKSLIGRSDLNGKRSKIITKENISQPRGIAVHPMAKRLFWTDTGINPRIESSSLQGLGRLVIASSDLIWPSGITIDFLTDKLYWCDAKQSVIEMANLDGSKRRRLTQNDVGHPFAVAVFEDYVWFSDWAMPSVMRVNKRTGKDRVRLQGSMLKPSSLVVVHPLAKPGADPCLYQNGGCEHICKKRLGTAWCSCREGFMKASDGKTCLALDGHQLLAGGEVDLKNQVTPLDILSKTRVSEDNITESQHMLVAEIMVSDQDDCAPVGCSMYARCISEGEDATCQCLKGFAGDGKLCSDIDECEMGVPVCPPASSKCINTEGGYVCRCSEGYQGDGIHCLDIDECQLGEHSCGENASCTNTEGGYTCMCAGRLSEPGLICPDSTPPPHLREDDHHYSVRNSDSECPLSHDGYCLHDGVCMYIEALDKYACNCVVGYIGERCQYRDLKWWELRHAGHGQQQKVIVVAVCVVVLVMLLLLSLWGAHYYRTQKLLSKNPKNPYEESSRDVRSRRPADTEDGMSSCPQPWFVVIKEHQDLKNGGQPVAGEDGQAADGSMQPTSWRQEPQLCGMGTEQGCWIPVSSDKGSCPQVMERSFHMPSYGTQTLEGGVEKPHSLLSANPLWQQRALDPPHQMELTQ
modifications: Pro-epidermal growth factor
- Colonies/Cultures [1]: 68
- Colonies/Cultures [2]: 430
- Colonies/Cultures [3]: 258
- Colonies/Cultures ([4]; Al-1, 1,000 cells): 41
- Colonies/Cultures ([4]; Al-1, 10,000 cells): 685
